From US20260146094A1 (CHIA TAI TIANQING PHARMACEUTICAL GROUP, published 2026)

Experiments:
[1] = target: T1, macaque c-Met on macaque epithelial cell 4MBr-5 (macaque); assay: flow cytometry on 4MBr-5 macaque epithelial cells
T1 construct: whole, on cells; also called 4MBr-5 cell

[2] = target: T2, Human c-Met-His (SinoBiological, product catalog No. 10692-H08H) (human, UniProt P08581 25-932); assay: competitive ELISA, coated human c-Met-His, blocking of biotin-HGF
T2 construct: Bought protein; also called human c-Met-His protein; c-Met-His protein; not shown: His tag
T2 sequence (P08581 25-932 limits assumed): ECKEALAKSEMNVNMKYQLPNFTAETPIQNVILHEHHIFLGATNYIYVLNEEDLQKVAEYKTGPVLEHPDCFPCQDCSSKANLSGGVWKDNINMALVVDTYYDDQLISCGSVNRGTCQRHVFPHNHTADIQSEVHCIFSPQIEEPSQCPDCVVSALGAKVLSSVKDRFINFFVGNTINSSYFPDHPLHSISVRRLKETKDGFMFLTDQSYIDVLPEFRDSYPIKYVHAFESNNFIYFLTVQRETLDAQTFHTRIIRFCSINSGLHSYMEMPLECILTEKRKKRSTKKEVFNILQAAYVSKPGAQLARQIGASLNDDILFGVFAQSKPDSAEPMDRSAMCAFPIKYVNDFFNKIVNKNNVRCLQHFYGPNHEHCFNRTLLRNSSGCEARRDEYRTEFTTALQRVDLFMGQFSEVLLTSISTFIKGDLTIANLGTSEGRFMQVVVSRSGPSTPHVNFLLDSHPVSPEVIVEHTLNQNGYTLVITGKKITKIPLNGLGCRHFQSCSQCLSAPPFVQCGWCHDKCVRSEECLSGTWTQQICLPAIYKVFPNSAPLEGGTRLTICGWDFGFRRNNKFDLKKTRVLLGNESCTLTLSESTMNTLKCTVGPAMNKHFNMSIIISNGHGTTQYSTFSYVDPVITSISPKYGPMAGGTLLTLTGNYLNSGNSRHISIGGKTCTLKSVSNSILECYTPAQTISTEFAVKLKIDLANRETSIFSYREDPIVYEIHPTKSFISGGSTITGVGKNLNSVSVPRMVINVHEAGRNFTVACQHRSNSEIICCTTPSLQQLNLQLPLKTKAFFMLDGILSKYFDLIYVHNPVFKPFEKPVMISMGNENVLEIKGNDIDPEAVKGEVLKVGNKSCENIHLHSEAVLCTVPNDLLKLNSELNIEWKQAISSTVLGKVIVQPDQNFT
Description: (§1) After the plate was washed, an HRP-conjugated streptavidin (eBioscience, product catalog No. 18-4100-51) was added. The plate was incubated at 25° C. for 1 h and then washed 5 times, and a TMB substrate solution (TIANGEN, product catalog No. PA107) was added at 100 μL/well for color development. The light absorption signal values at the wavelength of 450 nm and the reference wavelength of 650 nm were measured. A curve (FIG. 2A) was fit, and the IC₅₀ values (Table 4) were calculated.

[3] = target: T2, Human c-Met-His (SinoBiological, …); assay: competitive ELISA, coated human c-Met-His, blocking of HGFβ
Description: as §1
A curve (FIG. 2B) was fit based on the results, and the IC₅₀ values were calculated (Table 4).

[4] = target: human c-Met on natural human tumor cell lines (H1993, MKN45, KP4, H441) (human, UniProt P08581 25-1390); assay: cell-based or functional assay
Chain of human c-Met on natural human tumor cell lines (H1993, MKN45, KP4, H441) (P08581 25-1390): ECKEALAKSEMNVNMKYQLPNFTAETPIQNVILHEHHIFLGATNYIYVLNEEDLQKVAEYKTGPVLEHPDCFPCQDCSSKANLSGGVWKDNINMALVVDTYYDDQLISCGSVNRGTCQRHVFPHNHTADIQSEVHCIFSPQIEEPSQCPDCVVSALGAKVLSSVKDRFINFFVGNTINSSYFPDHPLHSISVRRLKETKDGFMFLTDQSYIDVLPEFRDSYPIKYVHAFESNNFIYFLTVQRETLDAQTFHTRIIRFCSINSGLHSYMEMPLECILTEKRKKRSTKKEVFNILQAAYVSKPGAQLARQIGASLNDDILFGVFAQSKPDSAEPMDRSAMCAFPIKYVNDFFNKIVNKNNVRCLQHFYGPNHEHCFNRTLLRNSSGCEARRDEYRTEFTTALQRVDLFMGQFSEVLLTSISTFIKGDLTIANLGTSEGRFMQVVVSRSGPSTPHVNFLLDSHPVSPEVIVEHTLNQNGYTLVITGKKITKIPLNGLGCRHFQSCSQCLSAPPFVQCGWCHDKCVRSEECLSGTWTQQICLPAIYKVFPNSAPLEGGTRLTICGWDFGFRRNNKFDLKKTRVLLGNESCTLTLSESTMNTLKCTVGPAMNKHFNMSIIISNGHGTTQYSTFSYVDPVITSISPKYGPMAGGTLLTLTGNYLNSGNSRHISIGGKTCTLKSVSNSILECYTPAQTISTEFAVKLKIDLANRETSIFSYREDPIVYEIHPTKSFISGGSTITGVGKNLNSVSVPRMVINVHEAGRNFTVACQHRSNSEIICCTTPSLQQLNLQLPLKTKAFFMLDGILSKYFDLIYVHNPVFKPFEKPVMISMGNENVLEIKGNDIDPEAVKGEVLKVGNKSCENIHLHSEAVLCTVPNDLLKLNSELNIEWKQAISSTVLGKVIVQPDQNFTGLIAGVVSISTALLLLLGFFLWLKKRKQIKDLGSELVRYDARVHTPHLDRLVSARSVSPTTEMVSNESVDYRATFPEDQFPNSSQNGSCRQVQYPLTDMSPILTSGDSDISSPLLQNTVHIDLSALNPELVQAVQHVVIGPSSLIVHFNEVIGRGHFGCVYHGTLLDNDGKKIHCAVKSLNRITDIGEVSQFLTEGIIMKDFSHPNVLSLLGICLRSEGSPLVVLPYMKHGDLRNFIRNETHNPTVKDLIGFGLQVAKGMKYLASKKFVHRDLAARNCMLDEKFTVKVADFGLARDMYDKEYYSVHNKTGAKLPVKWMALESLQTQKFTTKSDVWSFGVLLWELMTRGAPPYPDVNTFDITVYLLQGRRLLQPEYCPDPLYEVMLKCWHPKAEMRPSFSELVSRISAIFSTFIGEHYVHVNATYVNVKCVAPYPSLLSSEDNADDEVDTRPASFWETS

| Binder | EC50 [1] | other results |
| --- | --- | --- |
| 1B-1B6-Fc (antibody, human IgG1, V domains shown, also called anti-human c-Met VHH-Fc chimeric antibody 1B-1B6-Fc) VH: QVQLVESGGDSVQAGGSLRLSCAASAHAYSSGCMGWFRQAPGKGREGVATIYTRNDFTYYSDSVKGRFTISRDDAKNTVYLQVNSLKAEDTAMYYCAAGSPFRYAGAWNVCGLKEEDYNYWGQGTLVTVSS | 0.682 nM | – |
| 3B-1C7-Fc (antibody, human IgG1, V domains shown, also called anti-human c-Met VHH-Fc chimeric antibody 3B-1C7-Fc) VH: QVQLVESGGDSVQAGGSLRLSCIASGFTFDGTTMGWYRQAPGDECELVSDISSDGNTYYSDSVKGRFTISQGNAKNTVYLQMNSLTPEDTAVYYCAAAEFRLLLRPLCRQDDYGYWGQGTLVTVSS | 0.284 nM | – |
| 1B-1C7-Fc (antibody, human IgG1, V domains shown, also called anti-human c-Met VHH-Fc chimeric antibody 1B-1C7-Fc) VH: QVQLVESGGGLVQPGGSLRLSCAASGYSYSANCVGWFYQAPGKEREGVAAINTGGETATYADFVKGRFTISQDYAKNTVYLQMNSLKSEDTGMYYCAAVGTRKYWDECSLSQHAYKNWGQGTLVTVSS | 0.071 nM | – |
| 1B-1B2-Fc (antibody, human IgG1, V domains shown, also called anti-human c-Met VHH-Fc chimeric antibody 1B-1B2-Fc) VH: EVQLVESGGGSVQAGGSLRLSCTASGFTFDMGWYRQAPGDECELVSSISSDGNSDYLDSVKGRFTISQDNAKNTVYLQMNSLKPEDTAVYYCAANGAGHLVLRPLCGSNAVDAWGQGTLVTVSS | 0.418 nM | – |
| 1B-3B11-Fc (antibody, human IgG1, V domains shown, Expressed in CHO; also called anti-human c-Met VHH-Fc chimeric antibody 1B-3B11-Fc) VH: QVQLVESGGGSVQAGGSLRLSCVVSGYTYSSVAWFRQTPGKEREGVAVINPGGDNTDYTYAVKGRFTISRDSAKSTVFLQMNNLESEDTAMYYCAAGRTFGGTWMDRNKWKYWGQGTLVTVSS | 0.736 nM | – |
| 1B-1A8-Fc (antibody, human IgG1, V domains shown, also called anti-human c-Met VHH-Fc chimeric antibody 1B-1A8-Fc) VH: EVQLVESGGGLVQPGGSLRLSCVASGFTFKSYAMDWVRQAPGKGLEWIAGINSAGSPSYEASVKGRFTISRDNAENTLYLQLNSLKTEDTAMYYCTKCRDFRSPYCRPGQGTLVTVSS | 0.471 nM | IC50 [2]: 3.14 nM; Maximum blocking rate [2]: 63%; IC50 [3]: 3.56 nM; Maximum blocking rate [3]: 75%; Phosphorylation inhibition IC50 (nM), H441 cells, Phospho-c-Met (Tyr1234/1235) AlphaLISA [4]: 0.85 nM; Phosphorylation inhibition, Maximum inhibition rate, H441 cells [4]: 90% |
